biological target: T1, human pIgR extracellular domain (ECD) (human, UniProt P01833 19-638); assay: SPR, VHH captured by anti-Fc, ECD analyte
T1 construct: Bought from R&D Systems (Cat 2717-PG-050); also called hpIgR ECD
Procedure: In an assay, two flow cells of the SPR were used, in which the flow cell 1 ran the buffer reference, and the flow cell 2 ran the analyte. […] The HBSP (GE) buffer was followed at a flow rate of 30 μL/min. Then, the VHHs were captured on the anti-human Fc protein surface at 0.5 ug/ml (˜200-300 RU) on the flow cell 2. The running buffer was changed to HBSP with 100 ug/ml BSA after the capture. Next, the pIgR extracellular domains were used as analyte and loaded in a series of concentrations, starting at 30 nM with further 3-fold dilution series.
The extracellular domains were prepared as follows: cynomolgus monkey and rat extracellular domains were produced and characterized in house; mouse and human pIgR extracellular domains were purchased from R&D Systems (Cat #2800-PG-050 & 2717-PG-050 respectively). The pIgR extracellular domains were injected from low to high concentration using a single-cycle kinetics method. The off-rate was monitored at 30 minutes after the last or highest concentration injection. The reference run was completed under the same conditions except that the pIgR injection was replaced by buffer injection.
The raw data were processed by subtracting two sets of reference data from the response data: (1) reference flow cell 1 subtracted from sample flow cell 2; and (2) buffer blank run subtracted from experimental run. The processed data at all concentrations for each VHH were globally fit to a 1:1 simple Langmuir binding model to extract estimates of the kinetic constants (kₒₙ, koff) and affinity constants (KD).

T1 sequence (P01833 other isoform, or with tags, fused parts or gaps): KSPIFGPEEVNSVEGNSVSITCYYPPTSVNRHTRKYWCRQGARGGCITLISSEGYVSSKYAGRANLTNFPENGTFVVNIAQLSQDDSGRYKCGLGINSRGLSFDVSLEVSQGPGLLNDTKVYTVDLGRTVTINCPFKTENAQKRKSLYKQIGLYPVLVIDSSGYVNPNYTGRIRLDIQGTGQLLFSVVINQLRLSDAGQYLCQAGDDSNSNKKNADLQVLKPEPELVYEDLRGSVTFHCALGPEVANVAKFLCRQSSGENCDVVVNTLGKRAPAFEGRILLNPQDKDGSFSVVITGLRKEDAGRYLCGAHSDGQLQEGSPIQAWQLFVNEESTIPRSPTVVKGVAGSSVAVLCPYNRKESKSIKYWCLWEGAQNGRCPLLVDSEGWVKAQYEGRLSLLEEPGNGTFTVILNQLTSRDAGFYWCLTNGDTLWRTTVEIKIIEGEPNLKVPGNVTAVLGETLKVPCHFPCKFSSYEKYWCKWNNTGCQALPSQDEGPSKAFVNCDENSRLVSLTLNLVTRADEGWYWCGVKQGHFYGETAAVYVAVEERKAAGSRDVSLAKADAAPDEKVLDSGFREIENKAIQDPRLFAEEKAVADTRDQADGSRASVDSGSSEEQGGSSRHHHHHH

Binder	Kd [nM]
01F03R3LS VHH Mono-Fc (Fc fusion) EVQLVESGGGLVQAGGSLRLSCAASGRTINGYVMGWFRQAPGEEREFVARIDWSGSSTDYADSVKGRFTISRDNAKITVYLQMNSLKPEDTAVYYCAGSAYYSGYVTHRDFGSWGQGTLVTVSSSPAPELLGGPSVFLFPPKPKDTLMISRTPEVTCVVVDVSHEDPEVKFNWYVDGVEVHNAKTKPREEQYNSTYRVVSVLTVLHQDWLNGKEYKCKVSNKALPAPIEKTISKAKGQPREPQVYTKPPSREEMTKNQVSLSCLVKGFYPSDIAVEWESNGQPENNYKTTVPVLDSDGSFRLASYLTVDKSRWQQGNVFSCSVMHEALHNHYTQKSLSLSPGK	10.9
01C02R2 VHH Mono-Fc (Fc fusion) EVQLVESGGGLVQAGGSLRLSCAASGRSYAMGWFRQAPGKEREFAAAISWSGSRTYYADAVKGRFTISRDNAKNTVYLQMNSLKPEDTAVYYCAADPDGTVVASSGWTNSYEYGYWGQGTLVTVSSSPAPELLGGPSVFLFPPKPKDTLMISRTPEVTCVVVDVSHEDPEVKFNWYVDGVEVHNAKTKPREEQYNSTYRVVSVLTVLHQDWLNGKEYKCKVSNKALPAPIEKTISKAKGQPREPQVYTKPPSREEMTKNQVSLSCLVKGFYPSDIAVEWESNGQPENNYKTTVPVLDSDGSFRLASYLTVDKSRWQQGNVFSCSVMHEALHNHYTQKSLSLSPGK	0.275
03H01R3 VHH Mono-Fc (Fc fusion) EVQLVESGGGLVQAGGSLRLSCAASGRTSSIYNMGWFRQAPGQEREFVAAIHWGGGRTYYADSVKGRFTISRDNAKNTVYLQMNSLEPGDTANYYCAARRAPELLDDYKQKPEEIGTYHYWGQGTQVTVSSSPAPELLGGPSVFLFPPKPKDTLMISRTPEVTCVVVDVSHEDPEVKFNWYVDGVEVHNAKTKPREEQYNSTYRVVSVLTVLHQDWLNGKEYKCKVSNKALPAPIEKTISKAKGQPREPQVYTKPPSREEMTKNQVSLSCLVKGFYPSDIAVEWESNGQPENNYKTTVPVLDSDGSFRLASYLTVDKSRWQQGNVFSCSVMHEALHNHYTQKSLSLSPGK	0.15
03A08R3 VHH Mono-Fc (Fc fusion) QVQLVESGGGLVQAGGSLRLSCAASGRTSSIYGMGWFRQAPGKEREFVAAISWSAGRTYHADSVKGRFTISRDNAKNMVYLQMDKMKPGDTAVYYCAARRAPELLSDYTQKPEEIGTYHYWGQGTLVTVSSSPAPELLGGPSVFLFPPKPKDTLMISRTPEVTCVVVDVSHEDPEVKFNWYVDGVEVHNAKTKPREEQYNSTYRVVSVLTVLHQDWLNGKEYKCKVSNKALPAPIEKTISKAKGQPREPQVYTKPPSREEMTKNQVSLSCLVKGFYPSDIAVEWESNGQPENNYKTTVPVLDSDGSFRLASYLTVDKSRWQQGNVFSCSVMHEALHNHYTQKSLSLSPGK	1.97
02G04R3 VHH Mono-Fc (Fc fusion) QVQLVESGGGLVQAGGSLRLSCAANGRAANAYAVGWFRQAPGKEREFVAHIRWNGGRTAYADSVKGRFTISRDDAKNTVYLQMDSLKPEDTAVYYCAEDTNPDAFGDLRLPSEYEYWGQGTQVTVSSSPAPELLGGPSVFLFPPKPKDTLMISRTPEVTCVVVDVSHEDPEVKFNWYVDGVEVHNAKTKPREEQYNSTYRVVSVLTVLHQDWLNGKEYKCKVSNKALPAPIEKTISKAKGQPREPQVYTKPPSREEMTKNQVSLSCLVKGFYPSDIAVEWESNGQPENNYKTTVPVLDSDGSFRLASYLTVDKSRWQQGNVFSCSVMHEALHNHYTQKSLSLSPGK	1.29
01D09R3 VHH Mono-Fc (Fc fusion) QVQLVESGGGLVQAGGSLRLSCAASGRTFSVYAMGWFRQAPGKERQFVAAITWSGGSTSYADSVKGRFTISRDNAKNTVYLQMNILKPEDTAVYYCAAATNPYFSDYYPDLKYEFDYWGQGTLVTVSSSPAPELLGGPSVFLFPPKPKDTLMISRTPEVTCVVVDVSHEDPEVKFNWYVDGVEVHNAKTKPREEQYNSTYRVVSVLTVLHQDWLNGKEYKCKVSNKALPAPIEKTISKAKGQPREPQVYTKPPSREEMTKNQVSLSCLVKGFYPSDIAVEWESNGQPENNYKTTVPVLDSDGSFRLASYLTVDKSRWQQGNVFSCSVMHEALHNHYTQKSLSLSPGK	2.76
02C10R3 VHH Mono-Fc (Fc fusion) EVQLVESGGGLVQPGGSLRLSCAASGFTFSSFTMTWFRQAPGKGLGWVSRISSDGTGTNYADSVKGRFTISRDNAKNTLYLRMNSLKPEDTAVYYCAIADDSSTRGQGTLVTVSSSPAPELLGGPSVFLFPPKPKDTLMISRTPEVTCVVVDVSHEDPEVKFNWYVDGVEVHNAKTKPREEQYNSTYRVVSVLTVLHQDWLNGKEYKCKVSNKALPAPIEKTISKAKGQPREPQVYTKPPSREEMTKNQVSLSCLVKGFYPSDIAVEWESNGQPENNYKTTVPVLDSDGSFRLASYLTVDKSRWQQGNVFSCSVMHEALHNHYTQKSLSLSPGK	2.09
01D04R3LS VHH Mono-Fc (Fc fusion) EVQLVESGGGLVQAGGSLRLSCAASGRTFRSYAMGWFRQAPGKEREFVADISWRGGRLYYADSVKGRFTISRDNAKNTVYLQMNSLKPEDTAVYYCAATGDQPAFTTAQGMGAMLEYDYWGQGTLVTVSSSPAPELLGGPSVFLFPPKPKDTLMISRTPEVTCVVVDVSHEDPEVKFNWYVDGVEVHNAKTKPREEQYNSTYRVVSVLTVLHQDWLNGKEYKCKVSNKALPAPIEKTISKAKGQPREPQVYTKPPSREEMTKNQVSLSCLVKGFYPSDIAVEWESNGQPENNYKTTVPVLDSDGSFRLASYLTVDKSRWQQGNVFSCSVMHEALHNHYTQKSLSLSPGK	1.16
01B04R2 VHH Mono-Fc (Fc fusion) EVQLVESGGGLVQAGGSLRLSCAASGRTFTSYTMGWFRQAPGKEREFVAAIKWNGGSTYYADSVKGRFTISRDNAKNTVYLQMNSLKPEDTAVYYCAADGDPYFSPTDGIVWHAPHQSEYDYWGQGTLVTVSSSPAPELLGGPSVFLFPPKPKDTLMISRTPEVTCVVVDVSHEDPEVKFNWYVDGVEVHNAKTKPREEQYNSTYRVVSVLTVLHQDWLNGKEYKCKVSNKALPAPIEKTISKAKGQPREPQVYTKPPSREEMTKNQVSLSCLVKGFYPSDIAVEWESNGQPENNYKTTVPVLDSDGSFRLASYLTVDKSRWQQGNVFSCSVMHEALHNHYTQKSLSLSPGK	16.8

biological target: T2, recombinant human pIgR (hpIgR) (human, UniProt P01833 19-638, limits assumed); assay: ELISA, periplasmic VHH, BSA subtracted
T2 construct: probably the ECD
T2 sequence (P01833 19-638 limits assumed): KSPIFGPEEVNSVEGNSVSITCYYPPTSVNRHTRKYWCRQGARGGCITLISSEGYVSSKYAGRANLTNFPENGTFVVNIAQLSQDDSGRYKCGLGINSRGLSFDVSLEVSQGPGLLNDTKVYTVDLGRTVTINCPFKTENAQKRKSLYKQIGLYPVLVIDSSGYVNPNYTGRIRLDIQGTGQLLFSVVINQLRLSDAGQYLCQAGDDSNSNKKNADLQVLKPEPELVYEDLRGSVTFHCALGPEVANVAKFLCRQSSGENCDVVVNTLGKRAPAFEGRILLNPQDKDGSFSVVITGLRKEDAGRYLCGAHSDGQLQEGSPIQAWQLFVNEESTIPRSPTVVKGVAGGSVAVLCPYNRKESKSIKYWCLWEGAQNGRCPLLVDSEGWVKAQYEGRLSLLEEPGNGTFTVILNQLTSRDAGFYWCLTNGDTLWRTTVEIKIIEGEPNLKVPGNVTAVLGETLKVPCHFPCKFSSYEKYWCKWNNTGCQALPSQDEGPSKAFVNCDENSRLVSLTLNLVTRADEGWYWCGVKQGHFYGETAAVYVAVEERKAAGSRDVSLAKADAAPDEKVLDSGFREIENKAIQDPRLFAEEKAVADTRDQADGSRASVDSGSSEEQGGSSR
Method in brief: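 His-tagged VHH in periplasmic extracts (osmotic shock, non-suppressor E. coli) were tested by ELISA for binding to pIgR. Bound nanobody was detected with polyclonal anti-alpaca VHH antibody in the initial screen and anti-VHH antibody on retest. Signal on BSA, run in parallel, was subtracted from the pIgR signal.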

Binder	ELISA (OD)
01G05R2LS His-tagged VHH (VHH) VHH: QVQLVESGGGLVQAGDSLALSCAGSGDTFSNYAMGWFRQAPGKEREFVADISWYSANIGYADSVKGRFTISRDNAKNMVTLRMNSLKPEDTAVYYCAADRNHWPVKGDYWGQGTQVTVSS	2.15
01G07R3 His-tagged VHH (VHH) VHH: QVQLVESGGGLVQAGDSLRLSCAASGRTLSFDTYAMGWFRQAPGKEREFVASIDWSGGTTYYADSVKGRFTVTRDNAKNTVTLRMNSLKPADTAVYYCAAAQYYRSGTSFPANYWGQGTLVTVSS	2.19
01H02R3LS His-tagged VHH (VHH) VHH: QVQLVESGGGLVQPGGSLRLSCAASGSIFSASVMGWYRQGPGKQREFVARISPGGVTHYADSVKGRFTISKDNAKNTVTLQMNSLKPEDTAVYYCNADRFGFEVYWGQGTLVTVSS	1.97
01H08R3 His-tagged VHH (VHH) VHH: QVQLVESGGGSVQTGGSLRLSCTASGRTFSNYGMGWFRQAPGKEREFVAGITRSGRTTYYYYADAVKGRFTIPRDNADNTIYLQMDSMKPDDTAVYYCAARQGENNYDPRSGSAYNYWGPGTQVTVSS	1.11
01A09R3L His-tagged VHH (VHH) VHH: EVQLVESGGGVVQAEDSLRLSCAASGLSFSLSRMGWFRQAPGKEREFVATIEWSGRSTYKYYDDSVKGRFAVSGDNTKNTMNLQMKGLNLEDTGVYYCAANPNNYGDPRTPGAYQYWGQGTQVTVSS	1.98
01H10R2 His-tagged VHH (VHH) VHH: QVQLVESGGGLVQPGGSLRLSCAASGRTSSISTMGWFRQAPGKEREFVTAIRWSGSSSYKYYADSVKGRFTISRDNARNTVYLQMNSLKPEDTAVYYCAAQMSLWRDPREIDYDYWGQGTLVTVSS	1.83
01H10R3 His-tagged VHH (VHH) VHH: QVQLVESGGGLVQAGGSLRLSCAASGRAFSQYTMGWFRQAPGKEREFVTAIRWSGGSIYKYYADSVKGRFTISGDNARNTVDLQMNSLKPEDTAVYYCAARMSPWGDPRGNEYDYWGQGTLVTVSS	1.54
02B12R3 His-tagged VHH (VHH) VHH: QVQLVESGGGWVQTGGSLRLSCAASGRTVSSYYMGWFRQTPGKEREFVAAISWVGSSTYKYYTDSAKGRFTISRDNAKNTVYLQMNSLKPEDTAVYYCAARPRVGDPRSRYDDDNWGQGTQVTVSS	2.38
02C10R3 His-tagged VHH (VHH) VHH: EVQLVESGGGLVQPGGSLRLSCAASGFTFSSFTMTWFRQAPGKGLGWVSRISSDGTGTNYADSVKGRFTISRDNAKNTLYLRMNSLKPEDTAVYYCAIADDSSTRGQGTLVTVSS	2.05

Source: patent US20220112276A1 (Janssen / Centocor, published 2022)
